Data from the supplement of paper PMC10724198.
± gives the standard deviation of the averaged measurements.

Tests used:
Saccharomyces cerevisiae [1] = experiment: protein stability index of tFT-peptide fusion (C-terminal peptide) (PSI (0-1 scale)); higher = more stable (slower turnover)
Method: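 MPS profiling in S. cerevisiae of the tFT-X12 degron library: putative degron peptides plus stable controls, 12 aa, fused to the C-terminus of a sfGFP-mCherry timer. Cells are FACS-sorted into 8 mCherry/sfGFP bins and deep-sequenced. PSI runs from 0 (unstable) to 1 (stable). Backgrounds are wild type, das1Δ and doa10Δ at 30 °C, and wild type, das1Δ, cdc34-1 and cdc53-1 at 37 °C; 2-3 technical replicates each.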

Saccharomyces cerevisiae [2] = experiment: as above; conditions: genetic background: wild type; temperature: 30 C
[3] = genetic background: cdc34-1, temperature: 37 C
[4] = genetic background: cdc53-1, temperature: 37 C
[5] = genetic background: das1 deletion, temperature: 30 C
[6] = genetic background: das1 deletion, temperature: 37 C
[7] = genetic background: doa10 deletion, temperature: 30 C
[8] = genetic background: wild type, temperature: 30 C
[9] = genetic background: wild type, temperature: 37 C
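Also: PSI is a weighted mean of sequencing reads over stability bins, variants kept only with over 10 reads, mCherry proximal and sfGFP distal, peptide attached via GGGS linker.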

| Sequence | protein stability index (Saccharomyces cerevisiae [1]; [3]) | protein stability index (Saccharomyces cerevisiae [1]; [4]) | protein stability index (Saccharomyces cerevisiae [1]; [5]) | protein stability index (Saccharomyces cerevisiae [1]; [6]) | protein stability index (Saccharomyces cerevisiae [1]; [7]) | protein stability index (Saccharomyces cerevisiae [1]; [8]) | protein stability index (Saccharomyces cerevisiae [1]; [9]) | protein stability index (Saccharomyces cerevisiae [2]) |
| --- | --- | --- | --- | --- | --- | --- | --- | --- |
| MLFALLTIVFLG | 0.241 ± 0.031 | 0.3263 ± 0.0015 | 0.242 ± 0.024 | 0.388 ± 0.0085 | 0.166 ± 0.0093 | 0.182 ± 0.015 | 0.30056 ± 0.00017 | 0.295 ± 0.016 |
| ALPLRSNILSVF | 0.446 ± 0.019 | 0.489 ± 0.037 | 0.344 ± 0.031 | 0.506 ± 0.0091 | 0.242 ± 0.01 | 0.283 ± 0.023 | 0.45 ± 0.011 | 0.3795 ± 0.0028 |
| PPIPTPSPIPLH | 0.66 ± 0.018 | 0.726 ± 0.0011 | 0.653 ± 0.017 | 0.695 ± 0.021 | 0.667 ± 0.011 | 0.658 ± 0.017 | 0.677 ± 0.015 | 0.7119 ± 0.0055 |
| PPVAYVCHLYVT | 0.589 ± 0.058 | 0.614 ± 0.029 | 0.5 ± 0.017 | 0.6058 ± 0.0045 | 0.309 ± 0.031 | 0.335 ± 0.028 | 0.503 ± 0.013 | 0.428 ± 0.0053 |
| IKCVPLVWRLTV | 0.457 ± 0.0073 | 0.594 ± 0.045 | 0.534 ± 0.038 | 0.6384 ± 0.0023 | 0.109 ± 0.022 | 0.123 ± 0.02 | 0.1955 ± 0.001 | 0.272 ± 0.031 |
| ALWFVLISILCL | 0.316 ± 0.016 | 0.353 ± 0.026 | 0.312 ± 0.024 | 0.427 ± 0.03 | 0.304 ± 0.007 | 0.291 ± 0.017 | 0.3896 ± 0.0022 | 0.378 ± 0.007 |
| ISTRLALCACVC | 0.184 ± 0.027 | 0.18 ± 0.0098 | 0.245 ± 0.019 | 0.3009 ± 0.0026 | 0.1999 ± 0.00074 | 0.208 ± 0.017 | 0.245 ± 0.0031 | 0.3273 ± 0.0032 |
| IIGCIAICLMVN | 0.0164 ± 0.0065 | 0.214 ± 0.25 | 0.0942 ± 0.042 | 0.0938 ± 0.019 | 0.0381 ± 0.015 | 0.0451 ± 0.016 | 0.0405 ± 0.027 | 0.0843 ± 0.012 |
| VNTLCCVFRCNL | 0.96 ± 0.0047 | 0.9524 ± 0.0023 | 0.816 ± 0.013 | 0.889 ± 0.026 | 0.8247 ± 0.0043 | 0.826 ± 0.028 | 0.8905 ± 0.0035 | 0.805 ± 0.045 |
| AIDLCIAVVGMV | 0.479 ± 0.042 | 0.491 ± 0.029 | 0.338 ± 0.035 | 0.5106 ± 0.0023 | 0.311 ± 0.015 | 0.342 ± 0.026 | 0.4829 ± 0.001 | 0.4439 ± 0.0022 |
| KRRKERIKIQQI | 0.628 ± 0.037 | 0.715 ± 0.041 | 0.634 ± 0.073 | 0.737 ± 0.089 | 0.122 ± 0.0062 | 0.168 ± 0.046 | 0.28 ± 0.0094 | 0.261 ± 0.062 |
| VFLRCRSLSMRV | 0.475 ± 0.044 | 0.519 ± 0.014 | 0.397 ± 0.028 | 0.5352 ± 0.0026 | 0.409 ± 0.019 | 0.389 ± 0.013 | 0.529 ± 0.012 | 0.465 ± 0.03 |
| YKLRAVFVCSVT | 0.575 ± 0.06 | 0.6329 ± 0.0043 | 0.507 ± 0.021 | 0.6427 ± 0.0023 | 0.311 ± 0.018 | 0.34 ± 0.025 | 0.445 ± 0.028 | 0.392 ± 0.037 |
| VFFFFSLVNFRV | 0.546 ± 0.061 | 0.574 ± 0.041 | 0.459 ± 0.042 | 0.606 ± 0.017 | 0.47 ± 0.05 | 0.419 ± 0.021 | 0.549 ± 0.03 | 0.486 ± 0.041 |
| WDPKISVFVLID | 0.439 ± 0.056 | 0.53 ± 0.11 | 0.344 ± 0.024 | 0.55 ± 0.025 | 0.246 ± 0.013 | 0.291 ± 0.018 | 0.479 ± 0.0098 | 0.403 ± 0.0096 |
| FLFWVLLVGCSF | 0.244 ± 0.0058 | 0.299 ± 0.012 | 0.245 ± 0.035 | 0.3748 ± 0.0029 | 0.206 ± 0.015 | 0.206 ± 0.021 | 0.334 ± 0.013 | 0.304 ± 0.028 |
| GGVVLVVVFCCV | 0.165 ± 0.0053 | 0.34 ± 0.02 | 0.217 ± 0.025 | 0.352 ± 0.01 | 0.18 ± 0.015 | 0.204 ± 0.029 | 0.3395 ± 0.00053 | 0.42 ± 0.13 |
| FTFLFPLRLLPL | 0.305 ± 0.051 | 0.295 ± 0.025 | 0.377 ± 0.036 | 0.478 ± 0.015 | 0.586 ± 0.033 | 0.374 ± 0.009 | 0.442 ± 0.011 | 0.3469 ± 0.00084 |
| RVLSLLGCFVVF | 0.501 ± 0.03 | 0.486 ± 0.013 | 0.448 ± 0.028 | 0.585 ± 0.018 | 0.485 ± 0.017 | 0.429 ± 0.013 | 0.558 ± 0.026 | 0.4651 ± 0.0023 |
| LALTRAAITHFF | 0.649 ± 0.026 | 0.749 ± 0.013 | 0.652 ± 0.017 | 0.743 ± 0.039 | 0.213 ± 0.0085 | 0.253 ± 0.026 | 0.496 ± 0.021 | 0.42 ± 0.026 |

| Sequence | protein stability index (Saccharomyces cerevisiae [1]; [3]) | protein stability index (Saccharomyces cerevisiae [1]; [4]) | protein stability index (Saccharomyces cerevisiae [1]; [5]) | protein stability index (Saccharomyces cerevisiae [1]; [6]) | protein stability index (Saccharomyces cerevisiae [1]; [7]) | protein stability index (Saccharomyces cerevisiae [1]; [8]) | protein stability index (Saccharomyces cerevisiae [1]; [9]) | protein stability index (Saccharomyces cerevisiae [2]) |
| --- | --- | --- | --- | --- | --- | --- | --- | --- |
| DTHSRARAVLIA | 0.656 ± 0.0091 | 0.719 ± 0.015 | 0.585 ± 0.016 | 0.704 ± 0.01 | 0.2366 ± 0.002 | 0.301 ± 0.019 | 0.509 ± 0.04 | 0.389 ± 0.086 |
| SQIALIQYFHIL | 0.408 ± 0.02 | 0.655 ± 0.017 | 0.594 ± 0.015 | 0.704 ± 0.016 | 0.0937 ± 0.022 | 0.1 ± 0.017 | 0.202 ± 0.029 | 0.101 ± 0.06 |
| RWAAAVPLLVVG | 0.0233 ± 0.0059 | 0.0234 ± 0.0027 | 0.143 ± 0.026 | 0.105 ± 0.0046 | 0.111 ± 0.018 | 0.137 ± 0.032 | 0.0908 ± 0.0062 | 0.211 ± 0.022 |
| VVFLLGPLVCGG | 0.5042 ± 0.0031 | 0.514 ± 0.018 | 0.392 ± 0.021 | 0.535 ± 0.0069 | 0.375 ± 0.016 | 0.397 ± 0.019 | 0.5125 ± 0.0021 | 0.44 ± 0.025 |
| CLFFFFFHLPIF | 0.445 ± 0.022 | 0.508 ± 0.016 | 0.425 ± 0.026 | 0.533 ± 0.033 | 0.4011 ± 0.00062 | 0.389 ± 0.023 | 0.476 ± 0.021 | 0.472 ± 0.032 |
| FLYFLLQFLCSG | 0.517 ± 0.04 | 0.544 ± 0.0046 | 0.418 ± 0.034 | 0.597 ± 0.046 | 0.406 ± 0.0045 | 0.421 ± 0.029 | 0.579 ± 0.034 | 0.516 ± 0.034 |
| GLCGVVVGCWVR | 0.395 ± 0.017 | 0.417 ± 0.017 | 0.286 ± 0.027 | 0.484 ± 0.016 | 0.293 ± 0.011 | 0.283 ± 0.021 | 0.4657 ± 0.0044 | 0.397 ± 0.014 |
| TPVIPLIRVRDC | 0.59 ± 0.034 | 0.701 ± 0.012 | 0.568 ± 0.017 | 0.691 ± 0.021 | 0.171 ± 0.011 | 0.225 ± 0.02 | 0.456 ± 0.0093 | 0.29 ± 0.023 |
| VVFWWGHLLVSA | 0.03535 ± 6.3e-05 | 0.0483 ± 0.016 | 0.118 ± 0.031 | 0.113 ± 0.009 | 0.0877 ± 0.021 | 0.0919 ± 0.021 | 0.0854 ± 0.0074 | 0.142 ± 0.024 |
| VFFLFLVFLTVV | 0.198 ± 0.059 | 0.164 ± 0.017 | 0.23 ± 0.01 | 0.324 ± 0.018 | 0.222 ± 0.011 | 0.195 ± 0.029 | 0.263 ± 0.0089 | 0.259 ± 0.01 |
| VICVVLSKVFLF | 0.483 ± 0.054 | 0.5728 ± 0.0027 | 0.495 ± 0.027 | 0.588 ± 0.0071 | 0.416 ± 0.0083 | 0.393 ± 0.02 | 0.483 ± 0.013 | 0.444 ± 0.014 |
| LVFPRWACSLVF | 0.344 ± 0.0079 | 0.3661 ± 0.0021 | 0.307 ± 0.025 | 0.426 ± 0.0075 | 0.263 ± 0.0029 | 0.288 ± 0.037 | 0.406 ± 0.019 | 0.3762 ± 0.00049 |
| SRICRTIIQLKQ | 0.561 ± 0.025 | 0.681 ± 0.013 | 0.626 ± 0.029 | 0.689 ± 0.033 | 0.107 ± 0.0018 | 0.121 ± 0.022 | 0.266 ± 0.004 | 0.168 ± 0.0027 |
| SNFQLLPLFKNI | 0.791 ± 0.12 | 0.789 ± 0.0083 | 0.651 ± 0.044 | 0.799 ± 0.027 | 0.182 ± 0.0062 | 0.216 ± 0.041 | 0.546 ± 0.056 | 0.39 ± 0.032 |
| CYVFLCGSFVFV | 0.446 ± 0.011 | 0.499 ± 0.0084 | 0.36 ± 0.036 | 0.551 ± 0.014 | 0.317 ± 0.0068 | 0.351 ± 0.023 | 0.515 ± 0.012 | 0.471 ± 0.037 |
| SLASPPPLLILR | 0.372 ± 0.057 | 0.342 ± 0.023 | 0.326 ± 0.032 | 0.436 ± 0.038 | 0.60698 ± 1.5e-05 | 0.354 ± 0.0056 | 0.434 ± 0.01 | 0.346 ± 0.023 |
| VCLVLVVVWWSG | 0.219 ± 0.0066 | 0.277 ± 0.028 | 0.222 ± 0.021 | 0.338 ± 0.0041 | 0.1895 ± 0.0012 | 0.201 ± 0.027 | 0.313 ± 0.012 | 0.292 ± 0.024 |
| RGCFVLRKTHLL | 0.635 ± 0.0083 | 0.715 ± 0.017 | 0.645 ± 0.018 | 0.7323 ± 0.0044 | 0.126 ± 0.0097 | 0.152 ± 0.014 | 0.275 ± 0.0075 | 0.254 ± 0.0058 |
| RNFSFTVICLAM | 0.48 ± 0.037 | 0.62 ± 0.05 | 0.485 ± 0.057 | 0.549 ± 0.0093 | 0.472 ± 0.026 | 0.474 ± 0.023 | 0.514 ± 0.019 | 0.511 ± 0.11 |
